± gives the standard deviation of the averaged measurements.
Key:
[1] = melting temperature (DSF); higher = more thermostable
Procedure, shortened: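 On a Bio-Rad CFX96, fluorescence of 45 μL enzyme (0 to 0.3 mg/mL) mixed with 5 μL 5X Sypro Orange in sealed PCR plates was followed from 25 °C through 250 cycles of 0.3 °C, with a 0.3 °C/s ramp. The enzymes had been expressed in E. coli C41(DE3), taken up on nickel beads and released by SUMO protease. Melting temperature, measured by differential scanning fluorimetry, is the value given.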

[2] = PET hydrolysis, aromatic products released after 48 h (umol product/mg enzyme); higher = more PET depolymerization activity
Procedure, shortened: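 Hydrolysis activity toward PET is reported as supernatant aromatic product per mg enzyme. To measure it, 5 μg (50 μL) of tagless enzyme was incubated with 3.5 mg amorphous PET film or crystalline PET powder in 450 μL buffer for 48 h at 40 or 60 °C in sealed, unshaken plates. The product was quantified by absorbance at 260 and 280 nm relative to buffer blanks.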

[3] = purified protein yield per well (BCA); higher = higher soluble expression
Procedure, shortened: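 The measured quantity is purified protein yield per well, determined with the Pierce Rapid Gold BCA kit. Anything below 25 ug (0.1 mg/mL) lies under the detection threshold. Enzymes were expressed in E. coli C41(DE3) in 2 mL autoinduction cultures with 100 µg/mL kanamycin at 37 °C for 2 h, then 18 °C for 40 h, and purified on an OT-2 robot using Ni-charged magnetic beads and SUMO protease release.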

[4] = substrate: cryPow, 40 °C, pH 4.5
[5] = substrate: cryPow, 40 °C, pH 5.5
[6] = substrate: cryPow, 40 °C, pH 6.5
[7] = substrate: cryPow, 40 °C, pH 7.5
[8] = substrate: cryPow, 60 °C, pH 4.5
[9] = substrate: cryPow, 60 °C, pH 5.5
[10] = substrate: cryPow, 60 °C, pH 6.5
[11] = substrate: cryPow, 60 °C, pH 7.5
[12] = substrate: aFilm, 40 °C, pH 4.5
[13] = substrate: aFilm, 40 °C, pH 5.5
[14] = substrate: aFilm, 40 °C, pH 6.5
[15] = substrate: aFilm, 40 °C, pH 7.5
[16] = substrate: aFilm, 60 °C, pH 4.5
[17] = substrate: aFilm, 60 °C, pH 5.5
[18] = substrate: aFilm, 60 °C, pH 6.5
[19] = substrate: aFilm, 60 °C, pH 7.5
[20] = substrate: cryPow, 40 °C, pH 8.5

Sequence	melting temperature [1] [C]	PET hydrolysis [2, 4]	PET hydrolysis [2, 5]	PET hydrolysis [2, 6]	PET hydrolysis [2, 7]	PET hydrolysis [2, 8]	PET hydrolysis [2, 9]	PET hydrolysis [2, 10]	PET hydrolysis [2, 11]	purified protein yield per well [3] [µg]	PET hydrolysis [2, 12]	PET hydrolysis [2, 13]	PET hydrolysis [2, 14]	PET hydrolysis [2, 15]	PET hydrolysis [2, 16]	PET hydrolysis [2, 17]	PET hydrolysis [2, 18]	PET hydrolysis [2, 19]	PET hydrolysis [2, 20]	PET hydrolysis ([2]; substrate: cryPow, 60 °C, pH 8.5)
ATPDHAATADHASAHHHAAYPVSQQTIPATDGTGFGAATLYAPQGTGRKTLGAIVVAPGLKGDQSDLAWLAQDLAGEGFIVLNMDTLGKYDLPNQRSYEMLAAAKYLATASSVKDQVDPADIGVVGYSLGGGGALQAAVEQHGLKAAVALMPYDFPAGTTDPYKPTESPTYPGITTPTLVITGQADTTAPAASMGKPAYDSIPASTPKQYLELRGADHLAARATTNGTVRDAVTNFLKVYLDGNSAYRKYVCPAPPTSAAISESASSCPR [ESM174]	44.5	< 3	< 3	< 3	< 3	< 3	< 3	< 3	< 3	86.9										
ATTSFQRGPAPTTASIQATSGPFATSQTTVSRISVTGFGGGDIYYPTSTSSGTFGAVAIAPGYTALRSSMAWLAPRIASQGFVVFNIDTLTTSDQPATRGTELLAALDYLTTRSTVRTRIDTTRLAVMGHSMGGGGTLEAAKSRPSLQAAIPLTPWDLNKSFAGLAVPTLIIGAQADTVAPVSQHAKPFFTSLPSGLDKAYLELAGASHFAPNTSNTTIASISIAWLKRFVDDDTRYDQFLCPGPTVGTAVSQFTTNCPHIS [ESM156]	40.6	< 3	9.5 ± 0.71	14.5 ± 5	< 3	< 3	< 3	< 3	< 3	272	< 3	< 3	< 3	< 3	< 3	< 3	< 3	< 3		
ATTSYQRGPNPTEQSVRAANGPFAYSQFAIPDAEATGFGEGTIYYPNNTSVGTFGGVVIAPGFNADQNSTVWLGKRLASHGFVAVTITTHELNDQPYERGKQILAALDYLTGQSPAFVRSRLDPARLAAVGHSMGGGGTLFAAAQRPSLKAIVPLAPWALAKNWSNVQVPTMILSGAQDASAPPAEHAEKFYASLTSAPEKAYAKLDVNHVRFAWEHPLIGKLVVSWLKRFVDEDTRYTQFLCPTATGAVLLEYRATCPLG [DP026]	66.1		3	< 3	< 3		< 3	< 3	< 3	164									< 3	< 3
ATYERGPAPTAQSIVADGPFSYATVAVPTQSSFGGGTIYYPTDTNQGTFGAVAVIPGFVGSLDNVAWIGSRLASHGFVVFTVATTNPFAFPGDRAAQLQAALTYLTQSSSVRDRVDPNRLAVAGHSMGGGGALEAVRNNPALKAAVALQPWDFGQNFSAIAVPSMIVGAQNDQVATVTSHSEPFYDQIPAGAEKAYLELAGAGHDAGQSVSNATQAGSMLSWLKRYVDEDTRYEQFLCPAPSGPSVAEYRDTCPA [DP045]	45.7		< 3	< 3	< 3					37									< 3	
AVHGPDPTDALLEASRGPYATAQIDVSALAVSGFGGGTIYYPTTTSEGTFGGVAIAPGYTADKSSLAWLAARLASHGFVVFNIDTLTRLDQPDSRGRQLLAALDYLTQRSSVRSRVDASRLGVMGHSMGGGGTLEAAVSRPSLRAAVPLTPWNLDKTWPEVRTPTLIIGADLDTIAPVLTHAEPFYASLPSTLDKAYLELNNATHFAPNITDTTIGKYAVAWMKRFIDDDTRYNRFLCPGPSWSLSVEEYRSTCPF [TEP061]	51.4	< 3	< 3	< 3	2 ± 2.8	< 3	< 3	< 3	< 3	299	< 3	< 3	< 3	< 3	< 3	< 3	< 3	< 3		
CVTPAPPPAPDVATVTVGAGNGFGGGTIYYPQGATGRLPVVAASPGFTENQNAVGWYGPLLAREGNIVITIDTNSPFDSPTSRADQLLAAIDYVVNRSSVASIADGSRTAVMGHSMGGGGSLEAALKRPGLKAIIPLAPWNTTTNFSGVRVPTLIVGCQNDAIAPVGSHAEPFYQSIPATTPKAYLEIAGGDHFCTNSENPTIANYVVAWTDRFLQGDTSASSRLCPPPPAGGSISEYRANCPY [ESM050]	82.3	13.5 ± 0.71	50.5 ± 11	84.5 ± 6.4	134 ± 8.5	40 ± 1.4	106 ± 2.1	132 ± 11	140 ± 12	236	< 3	5	15.5 ± 0.71	7.5 ± 0.71	5	22.5 ± 5	15 ± 1.4	10.5 ± 0.71		
DDGYQRGPDPTEESIEAPRGTFEIGMAVVTRASADGFGGGTVYYPTDTSEGTFGAVAVSPGYSSSQAAIAWLGPRLASQGFVVFTIDTLSTSDSPTRRGDQVLAALSFLGRTELADRIDPDRLAVMGHSMGGGGSLEAAKDYPALQAIVPMTPWSVDKTFPEVTAPTLVIGAEDDVVARPRSHAEPIYESLPADGDKAYLELRDASHSAPSAPNTLIARYSLSWLKRYVDDDERYQQFLCPPPAVDDEISEYRSTCA [DP089]	52		< 3	4	19					< 25									20	
DEIGQAPTAGNITGNGSFTTTSESISSLVSGFGGGRVYYPTTAGKYPVVAISPGFTATWSSLSWIGPRLSSWGFVVVGIETNSIYDQPASRGSQLLAALNWAVNSSSSAVRARVDGSRRGVAGHSMGGGGTLEALAADTTGLVKAGVPIAPWNSDKTWNNVSEPVMIVGGQSDTVAPVASHSIPFYNTLAGPKGYVELTGASHFFPQSTNATLSRALVAWFKRWLNQDSRFTPYTCGFSGLAVSDFRSNAC [ESM090]	68.5	< 3	27	46	65	< 3	12	35	51	116										
DEIGQAPTASNITGNGSFATTSASISSTVAGFGGGRVYYPTATGTYPVIAISPGFTATWSSLSWIGPRLSSWGFVVVGIETNSIYDQPGSRGSQLLAALNWAVSSSPTAVRSRVDGSRRGVAGHSMGGGGTLEALAADTSGLVKAGVPLAPWNSDKTWNNVSEPVLIVGGQSDTIAPVSSHSVPFYNTLAGPKTYVELTGASHFFPQSSNATTSRALVSWFKRWLNQDSRFTPFTCGFSGAAVSSFRTNAC [ESM093]	65.2	< 3	25	44	72	< 3	7	23	39	93.2										
DEIGQAPTASNITGNGSFATTSESISSLVSGFGGGRVYYPTATGRYPVIAISPGFTATWSSLAWIGPRLSSWGFVVVGIETNSIYDQPGSRGNQLLAALNWAVNSSSTAVRSRVDGSRRGVAGHSMGGGGTLEALAADTSGLVKAGVPLAPWNTDKIWSNVSEPVLIVGGQADTIAPVATHSVPFYNTLAGPKTYVELTGASHFFPQTTNATTSRALVSWFKRWLNQDSRFTPYTCGFGGLAVSDFRSNAC [ESM147]	67.9	11	29	31	46	< 3	22	42	81	75.4										
DEIGQAPTSSNITGNGSFSVATYNISSLVSGFGGGVAYYPTTSGRYPVIAVSPGFTARWSSISWIGPRLASWGFVVVGIETNSIYDQPGSRGSQLLAALNWAVNSAPSSVRDRVDGSRRGVAGHSMGGGGTLEALAADTTGLVKAGVPIAPWNTDTTWGGLNEAVQIVGGESDTIAPVSSHSIPFYSTLGGPKSYVELNGASHFFPQTSNSTLSRALVSWFKRYLNNDARFTPFTCGYSGLSISDFRSNNC [ESM144]	50.2	< 3	< 3	< 3	6	< 3	< 3	< 3	< 3	89.1										
DEIGQAPTSSNITGNGSFSVSTYNISSLVTGFGGGVAYYPSTAGRYPVVAVSPGFTARWSSISWIGPRLASWGFVVVGIETNSVYDQPASRGSQLLAALNWAVNSAPSAITSRADGSRRGVAGHSMGGGGTLEALAADTTGNVKAGVPLAPWNSDKTWNNVNEPVQIIGGESDTVAGVSSHSIPFYNSLGGSKSYVELNGASHFFPQTTNATTSRALVSWFKRWLNQDARFTPFTCGYGGTAVSDFRTNAC [ESM177]	54.4	< 3	< 3	13	42	< 3	< 3	< 3	7	71.4										
DPPTHAKGVKPGPSELAAPSASDLAADGPHAVTTTAISGSVTPGFGAATIYAPASGSGYGGVAISPGYMSTQSAVSWLGPRLASHGFVVITFDTTTIWDNPDSRGVQLLAALDYLTGSSPARGQVDASRLAVMGHSMGGGGSLAAAKSRPSIDAAIPLTPWHTDKTWPEVSTPTLIVGAENDGIAPVASHAEPFYESLATSTDRAYLELNAATHSAPNSENAQISTYSLAWLKRFVDGDTSVDPILCPGPAASSTVEEYRSSCPF [DP019]	42.7		< 3	< 3	< 3					28									< 3	
